Data reported in publication PMC11211491, “Design of a covalent protein-protein interaction inhibitor of SRPKs to suppress angiogenesis and invasion of cancer cells” (Communications Chemistry, 2024).
aryl‑sulfonyl fluoride = aryl-sulfonyl fluoride group, a lysine-reactive covalent warhead for SuFEx reactions

Target: SRPK1ΔNS3 (UniProt Q96SB4)

B1: DBS1-1 (peptide)
peptide: Ac-RERARTRRK(aryl‑sulfonyl fluoride)RARTRERARTR-NH2
Binder B1 has an IC50 of inhibition of the phosphorylation of SRSF1 by SRPK1ΔNS3 (in vitro kinase assay, [32P]ATP); blocked pair SRPK1-SRSF1 of 640 nM.
